{
  "source": "patent US7560106B2",
  "about": "“Rationally designed heparinases derived from heparinase I and II and methods of sequencing therewith” (Massachusetts Institute of Technology, priority 1998, dated 2009)",
  "molecules": {"B1": {"name": "heparinase I: 42,500 Da enzyme from the periplasm of F. heparinum that degrades heparin-like glycosaminoglycans (protein, listed as Flavobacterium heparinum)", "chain": "MKKQILYLIVLQQLFLCSAYAQQKKSGNIPYRVNVQADSAKQKAIIDNKWVAVGINKPYALQYDDKLRFNGKPSYRFELKAEDNSLEGYAAGETKGRTELSYSYATTNDFKKFPPSVYQNAQKLKTVYHYGKGICEQGSSRSYTFSVYIPSSFPDNATTIFAQWHGAPSRTLVATPEGEIKTLSIEEFLALYDRMIFKKNIAHDKVEKKDKDGKITYVAGKPNGWKVEQGGYPTLAFGFSKGYFYIKANSDRQWLTDKADRNNANPENSEVMKPYSSEYKTSTIAYKMPFAQFPKDCWITFDVAIDWTKYGKEANTILKPGKLDVMMTYTKNKKPQKAHIVNQQEILIGRNDDDGYYFKFGIYRVGNSTVPVTYNLSGYSETAR"}, "B2": {"name": "C189A: heparinase II cysteine to alanine mutant at position 189 (protein, UniProt C6XZB6 26-772, looked up, variant C189A)", "Heparin and heparin-sulfate …": "QTKADVVWKDVDGVSMPIPPKTHPRLYLREQQVPDLKNRMNDPKLKKVWADMIKMQEDWKPADIPEVKDFRFYFNQKGLTVRVELMALNYLMTKDPKVGREAITSIIDTLETATFKPAGDISRGIGLFMVTGAIVYDWCYDQLKPEEKTRFVKAFVRLAKMLEAGYPPVKDKSIVGHASEWMIMRDLLSVGIAIYDEFPEMYNLAAGRFFKEHLVARNWFYPSHNYHQGMSYLNVRFTNDLFALWILDRMGAGNVFNPGQQFILYDAIYKRRPDGQILAGGDVDYSRKKPKYYTMPALLAGSYYKDEYLNYEFLKDPNVEPHCKLFEFLWRDTQLGSRKPDDLPLSRYSGSPFGWMIARTGWGPESVIAEMKVNEYSFLNHQHQDAGAFQIYYKGPLAIDAGSYTGSSGGYNSPHNKNFFKRTIAHNSLLIYDPKETFSSSGYGGSDHTDFAANDGGQRLPGKGWIAPRDLKEMLAGDFRTGKILAQGFGPDNQTPDYTYLKGDITAAYSAKVKEVKRSFLFLNLKDAKVPAAMIVFDKVVASNPDFKKFWLLHSIEQPEIKGNQITIKRTKNGDSGMLVNTALLPDAANSNITSIGGKGKDFWVFGTNYTNDPKPGTDEALERGEWRVEITPKKAAAEDYYLNVIQIADNTQQKLHEVKRIDGDKVVGVQLADRIVTFSKTSETVDRPFGFSVVGKGTFKFVMTDLLPGTWQVLKDGKILYPALSAKGDDGALYFEGTEGTYRFLR"}, "B3": {"name": "C348A: heparinase II cysteine to alanine mutant at position 348 (protein, UniProt C6XZB6 26-772, looked up, variant C348A)", "Heparin and heparin-sulfate …": "QTKADVVWKDVDGVSMPIPPKTHPRLYLREQQVPDLKNRMNDPKLKKVWADMIKMQEDWKPADIPEVKDFRFYFNQKGLTVRVELMALNYLMTKDPKVGREAITSIIDTLETATFKPAGDISRGIGLFMVTGAIVYDWCYDQLKPEEKTRFVKAFVRLAKMLECGYPPVKDKSIVGHASEWMIMRDLLSVGIAIYDEFPEMYNLAAGRFFKEHLVARNWFYPSHNYHQGMSYLNVRFTNDLFALWILDRMGAGNVFNPGQQFILYDAIYKRRPDGQILAGGDVDYSRKKPKYYTMPALLAGSYYKDEYLNYEFLKDPNVEPHAKLFEFLWRDTQLGSRKPDDLPLSRYSGSPFGWMIARTGWGPESVIAEMKVNEYSFLNHQHQDAGAFQIYYKGPLAIDAGSYTGSSGGYNSPHNKNFFKRTIAHNSLLIYDPKETFSSSGYGGSDHTDFAANDGGQRLPGKGWIAPRDLKEMLAGDFRTGKILAQGFGPDNQTPDYTYLKGDITAAYSAKVKEVKRSFLFLNLKDAKVPAAMIVFDKVVASNPDFKKFWLLHSIEQPEIKGNQITIKRTKNGDSGMLVNTALLPDAANSNITSIGGKGKDFWVFGTNYTNDPKPGTDEALERGEWRVEITPKKAAAEDYYLNVIQIADNTQQKLHEVKRIDGDKVVGVQLADRIVTFSKTSETVDRPFGFSVVGKGTFKFVMTDLLPGTWQVLKDGKILYPALSAKGDDGALYFEGTEGTYRFLR", "modifications": "heparinase II"}},
  "key": {"heparinase I [1]": {"target": "T1, heparinase I (Pedobacter heparinus, UniProt Q05819)", "assay": "Effect of lanthanides on heparinase I activity (232 nm assay)", "assay_type": "biochemical, Flavobacterium heparinum", "conditions": "15 minutes preincubation; 4 mg/mL heparin, 5 mM calcium, pH 6.5"}, "heparinase I [2]": {"target": "T1, heparinase I", "assay_type": "biochemical, Flavobacterium heparinum", "conditions": "30 minutes preincubation, 50 μM WRK, pH 7"}, "heparinase I [3]": {"target": "T1, heparinase I", "assay_type": "binding, Flavobacterium heparinum"}, "[4]": {"assay": "Heparinase I activity as a function of calcium concentration (K0.5, calcium dependence)", "assay_type": "biochemical", "procedure,_shortened": "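Heparinase I mutant activity was measured by UV absorbance at 232 nm in 100 mM MOPS, pH 7.0, with calcium varied from 0 to 10 mM. Activity is given as IU (μmol product/min) using ε=−3800 M^−1cm^−1.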"}, "[5]": {"assay": "Processivity of heparinase I on heparin", "assay_type": "biochemical"}, "[6]": {"conditions": "absence of calcium; shown previously; cited from earlier work"}, "[7]": {"assay": "Exhaustive digest and HPLC analysis of saccharide products of heparinase II and mutants, heparin substrate", "conditions": "exhaustive digest 18 hours at 30° C.", "protocol": "HPLC Analysis of Saccharide Products of Heparinase II Activity. Heparin or heparan sulfate was degraded by heparinase II or one of the recombinant heparinases for 18 h at 30° C. The reaction was stopped by boiling and the samples were injected onto a POROS Q/M (4.6×100 mm) anion-exchange column connected to a BIOCAD system (PerSeptive Biosystems, Framingham, Mass.) (Godavarti, R., and Sasisekharan, R (1996c) Biochem. Biophys. Res. Comm. 229, 770-777). A salt gradient of 0-2 M NaCI in 10 mM Tris pH 7.0 was run and products were monitored at 232 nm.\nExhaustive digests of both 4 mg/ml heparin and 2 mg/ml heparan sulfate were completed and the resulting products analyzed with a Perfusion Chromatography system in a fashion similar to the analysis completed for heparinase I (Godavarti, R., and Sasisekharan, R (1996c) Biochem. Biophys. Res. Comm. 229, 770-777). Running buffer used as 10 mM Tris, pH 7.0 and the salt gradient was 0-2 M NaCl over the course of ten minutes.\nAfter purification, each of these four wild-type and mutant enzymes was characterized via exhaustive (i.e., 18 hours at 30° C.) substrate digests to determine product profiles. Perfusion chromatography profiles of the desaccharide products of the three cysteine mutants and the r-heparinase II were analyzed using either heparin and heparan sulfate as the substrate."}},
  "data": [
    {"molecule": "[Lu+3]", "note": "[Lu^3+, lutetium]", "values": [
      {"measurement": "IC50", "setting": "heparinase I [1]", "result": 212, "unit": "µM"}
    ]},
    {"molecule": "[Ca+2]", "note": "[calcium]", "values": [
      {"measurement": "K0.5 of protection from WRK-mediated inactivation", "setting": "heparinase I [2]", "result": 980, "unit": "µM"},
      {"measurement": "calcium concentration sufficient to compete with terbium for binding to heparinase I", "setting": "heparinase I [3]", "result": 2, "unit": "mM"}
    ]},
    {"molecule": "[Tb+3]", "note": "[terbium]", "values": [
      {"measurement": "IC50", "setting": "heparinase I [1]", "result": 39, "unit": "µM"},
      {"measurement": "terbium equivalents at which fluorescence intensity stops increasing", "setting": "heparinase I [3]", "result": 10, "unit": "equivalents"}
    ]},
    {"molecule": "B1", "values": [
      {"measurement": "activity in 2 mm Ca++ relative to absence of calcium", "setting": "[4]", "result": "~10", "unit": "×"},
      {"measurement": "increase in activity upon introduction of millimolar concentrations of calcium", "setting": "[4]", "result": "five-fold increase in activity"},
      {"measurement": "processivity", "setting": "[5]", "result": "~90", "unit": "%"},
      {"measurement": "salt concentration of elution from heparin-POROS column", "setting": "[6]", "result": "around 500 mM"}
    ]},
    {"molecule": "B2", "values": [
      {"measurement": "degradation product profile, heparin substrate", "setting": "[7]", "result": "closely matched those of both r-heparinase II and native heparinase II"}
    ]},
    {"molecule": "B3", "values": [
      {"measurement": "degradation product profile, heparin substrate", "setting": "[7]", "result": "completely inactive"}
    ]}
  ]
}
